From patent US20240043548A1, “PREPARATION AND USE OF ANTI-FSHR ANTIBODY AND ANTIBODY-DRUG CONJUGATE THEREOF” (CANWELL (GZ) BIOTECH LIMITED, priority 2020, published 2024) come the findings set out here.

Where a SMILES comes first, the peptide text is derived from it. [ ]: non-standard residue; d: D form. Dolaproine = CO[C@@H]([C@@H]1CCCN1)[C@@H](C)C(=O)O; Dil = CC[C@H](C)[C@H](NC)[C@@H](CC(=O)O)OC; NMeV = CN[C@H](C(=O)O)C(C)C

One test concerns OVCAR-3. The test can be described thus: Cell killing assay, OVCAR-3. It is filed as cell-based. As to conditions: OVCAR-3 human ovarian cancer cell line. The protocol: (§1) In this example, the anti-cancer effect of CAN001 antibody-drug conjugate was tested with CellTiter-Glo cell viability assay in a 96-well plate.
(§2) Human ovarian cancer cell lines: OVCAR-3, A2780, and 3A0, all from ATCC.
(§3) Cells were seeded in a 96-well cell culture plate with 1,000 cells per well, and the total amount of the culture medium per well was controlled to 200 μL. After the cells adhered to the wall, the cells were treated with corresponding drugs, and the drugs were withdrawn at different time points (0, 24 h, 48 h, 72 h and 96 h), and MTS detection solution (10 μL MTS reagent+190 μL complete medium) (MTS cell proliferation kit (colorimetry) from AmyJet Scientific) was added. Then, the 96-well cell culture plate was incubated in a CO2 cell incubator for about 2 h away from light. Then, the cell culture plate was taken out and was measured at a wavelength of 492 nm to determine the absorbances of different groups of cells.
(§4) % inhibition and IC50 of each compound were calculated with XLFit curve fitting software.

The test system of the next test is A2780. Nature of the test: Cell killing assay, A2780. It counts as cell-based. The note with it: A2780 human ovarian cancer cell line. The protocol: as §1, §2, §3, §4
In another test the test system is 3AO. The test can be described thus: Cell killing assay, 3AO. It counts as cell-based. The note with it: 3AO human ovarian cancer cell line. The protocol: as §1, §2, §3, §4
The target of a further test is T1, human FSHR (Homo sapiens, UniProt P23945).
T1 construct: a fragment containing the FSHR gene was obtained by PCR with the cDNA as a template and FSHR-F and FSHR-R as primers; expressed in transfected cells; host or cells: HEK293T
T1 sequence (P23945 18-695): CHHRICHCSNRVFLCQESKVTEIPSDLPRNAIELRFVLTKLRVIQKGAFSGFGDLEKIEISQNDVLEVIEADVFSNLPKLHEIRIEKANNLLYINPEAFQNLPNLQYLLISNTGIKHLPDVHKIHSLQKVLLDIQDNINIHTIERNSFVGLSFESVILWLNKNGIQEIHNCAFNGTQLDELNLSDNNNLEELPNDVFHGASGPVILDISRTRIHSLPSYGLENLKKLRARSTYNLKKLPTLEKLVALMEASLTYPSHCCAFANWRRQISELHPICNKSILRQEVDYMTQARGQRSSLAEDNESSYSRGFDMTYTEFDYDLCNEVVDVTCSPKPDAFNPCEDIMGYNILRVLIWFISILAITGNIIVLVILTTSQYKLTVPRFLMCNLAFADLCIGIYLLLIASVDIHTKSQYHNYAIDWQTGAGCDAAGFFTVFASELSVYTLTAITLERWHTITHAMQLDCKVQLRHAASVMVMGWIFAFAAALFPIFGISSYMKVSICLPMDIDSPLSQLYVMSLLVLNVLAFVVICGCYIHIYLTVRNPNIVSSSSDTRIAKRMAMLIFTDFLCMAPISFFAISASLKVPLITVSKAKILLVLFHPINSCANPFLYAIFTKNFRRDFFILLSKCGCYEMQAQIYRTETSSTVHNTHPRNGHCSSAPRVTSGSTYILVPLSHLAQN
Nature of the test: Flow cytometry analysis of CAN001 antibody on HEK293T cells expressing FSHR. It counts as binding. As to conditions: for positive stained rate of the HEK293T cells: HEK293T cells expressing FSHR. The protocol: HEK293T cells were transfected with pMSGβ3_FSHR plasmid to obtain HEK293T cells expressing FSHR as the experimental group. HEK293T cells were transfected with pmaxGFP(Lonza) to obtain HEK293T cells expressing GFP protein as the negative control. After incubation with the supernatant containing the CAN001 antibody obtained in Example 3, the cells of the experimental group and negative control were stained with the CAN001 antibody and then the cells were washed and incubated with APC conjugated goat anti-mouse IgG secondary antibody. Flow cytometry was done with BD calibur and analyzed with Cellquest software.
In order to further screen the best CAN001 supernatant, HEK293T cells were co-transfected with a mixture of plasmids pcDNA3.1_CAN001 HC and pcDNA3.1_CAN001 LC with different proportions (mass ratios of pcDNA3.1_CAN001 HC to pcDNA3.1_CAN001 LC from left to right in FIG. 3 were 1:2, 1:1 and 1:3 respectively) and 25 kD linear PEI polymer according to a mass ratio of vector to polymer of 1:3. Seventy-two hours after transfection, the supernatant was collected and used to stain HEK293T cells expressing FSHR, and HEK293T cells expressing GFP protein were used as the negative control. The steps were as described above. […] The mass ratio of pcDNA3.1_CAN001 HC to pcDNA3.1_CAN001 LC of 1:2 was selected to prepare the supernatant containing CAN001 antibody.
For orientation: Flow cytometry measures light scatter and fluorescence of single cells or particles in a stream.

What is called IC50 is the concentration needed to halve the response being measured. Low readings indicate inhibition by little substance, high ones a need for much substance. For `CC[C@H](C)[C@@H]([C@@H](CC(=O)N1CCC[C@H]1[C@H](OC)[C@@H](C)C(=O)N[C@@H](Cc1ccccc1)C(=O)O)OC)N(C)C(=O)[C@@H](NC(=O)[C@@H](NC)C(C)C)C(C)C` [MMAF, monomethylauristatin F] (H-[NMeV]V[Dil][Dolaproine]F-OH), the IC50 in the test with OVCAR-3 worked out at 205 nM; in the test with A2780, 223 nM; with 3AO it was 301 nM.

B1: CAN001: Mouse anti-human FSHR monoclonal antibody; light chain SEQ ID NO: 3, heavy chain SEQ ID NO: 4 (protein)
light: MALPVTALLLPLALLLHAARPQIVLTQSPVIMSASPGEKVTLTCSASSSVSSSYLYWYQQKPGSSSKLWIYSTSNLASGVPARFSGSGSGTSYSLTISSMEAEDAASYFCHQWSSYPPTFGGGTKLEIKRADAAPTVSIFPPSSEQLTSGGASVVCFLNNFYPKDINVKWKIDGSERQNGVLNSWTDQDSKDSTYSMSSTLTLTKDEYERHNSYTCEATHKTSTSPIVKSFNRNEC
heavy: MEFGLSWVFLVALFRGVQCASQVQLQQPGAELVKPGASVNLSCKASGYTFTSYWMHWVKQRPGQGREWIGEINPRNGRTNYNEKFKSKATLTVDKSSSTAYMQLSSLTSEDSAVYCCARLSVGFAYWGQGTLVTVSAAKTTAPSVYPLAPVCGDTTGSSVTLGCLVKGYFPEPVTLTWNSGSLSSGVHTFPAVLQSDLYTLSSSVTVTSSTWPSQSITCNVAHPASSTKVDKKLEPRGPTIKPCPPCKCPAPNAAGGPSVFIFPPKIKDVLMISLSPIVTCVVVDVSEDDPDVQISWFVNNVEVHTAQTQTHREDYNSTLRVVSALPIQHQDWMSGKEFKCKVNNKDLGAPIERTISKPKGSVRAPQVYVLPPPEEEMTKKQVTLTCMVTDFMPEDIYVEWTNNGKTELNYKNTEPVLDSDGSYFMYSKLRVEKKNWVERNSYSCSVVHEGLHNHHTTKSFSRTPGK
modifications: Light chain amino acid sequence; Heavy chain amino acid sequence
Regarding B1, the “staining of FSHR-expressing versus GFP-expressing HEK293T cells” value with human FSHR (supernatant containing CAN001 antibody, APC goat anti-mouse IgG secondary, GFP-expressing cells as negative control) is listed as “specifically stained FHSR-expressing cells but not GFP-expressing cells”. The “positive stained rate of the HEK293T cells” value stood at 30.02% with human FSHR (supernatant from mass ratio pcDNA3.1_CAN001 HC to LC 1:1), 38.3% with human FSHR (supernatant from mass ratio pcDNA3.1_CAN001 HC to LC 1:2) and 34.75% with human FSHR (supernatant from mass ratio pcDNA3.1_CAN001 HC to LC 1:3). Besides, the IC50 in the test with OVCAR-3 was above 1000 nM.
